Measurements published in paper PMC7117682.

How the values were obtained:
[1] = biological target: CD47 naturally expressed on CD47(+) Jurkat T lymphoma cells (human (endogenous in Jurkat)) (UniProt Q08722); assay: laser scanning cytometry (LSC) on cells; titration of SIRPα-biotin on live DRAQ5-labelled Jurkat cells, 384-well, homogeneous (no wash), HEPES buffer (10 mM HEPES pH 7.5, 0.15 M NaCl), room temperature, neutravidin-Alexa488 0.5 μg/mL; SIRPα presented as a multimer on tetrameric neutravidin (avidity)
CD47 naturally expressed on CD47(+) Jurkat T lymphoma cells (human (endogenous in Jurkat)), sequence (Q08722 19-323): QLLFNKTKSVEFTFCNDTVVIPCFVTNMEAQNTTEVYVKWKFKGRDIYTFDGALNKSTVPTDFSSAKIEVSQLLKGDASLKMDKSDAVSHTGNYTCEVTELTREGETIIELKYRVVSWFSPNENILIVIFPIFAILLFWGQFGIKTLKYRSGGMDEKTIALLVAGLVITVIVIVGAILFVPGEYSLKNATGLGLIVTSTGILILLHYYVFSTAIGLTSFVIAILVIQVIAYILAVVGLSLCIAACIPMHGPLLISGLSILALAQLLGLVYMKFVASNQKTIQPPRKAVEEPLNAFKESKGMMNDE

[2] = biological target: CD47 naturally expressed on CD47(+) Jurkat T lymphoma cells (human (endogenous in Jurkat)) (UniProt Q08722); assay: laser scanning cytometry (LSC) on cells; competition on live CD47(+) Jurkat cells, 384-well, homogeneous: a fixed concentration of SIRPα-biotin (20 nM) co-incubated with a titration of the competitor or inhibitor, neutravidin-Alexa488

| Substance | EC50 [1] | fold more potent than SIRPαV1 [1] | IC50 [2] |
| --- | --- | --- | --- |
| SIRPα variant 2, biotin-conjugated (SIRPα-Avi-biotin d1 construct) (domain or fragment) | 0.016 µM | 2 fold |  |
| SIRPα variant 2, non-biotin conjugated (cold) (domain or fragment) |  |  | 3 µM |
